{"source": "IntAct's records for PubMed 19011093", "parents": {"B1": {"name": "RAN GTPase-activating protein 1 (Arabidopsis thaliana (Mouse-ear cress)), Q9LE82 (parent)", "chain": "MDHSAKTTQNRVLSVKMWPPSKSTRLMLVERMTKNITTPSIFSRKYGLLSVEEAEQDAKRIEDLAFATANKHFQNEPDGDGTSAVHVYAKESSKLMLDVIKRGPQEESEVEVSKDGDVFFDISGGSRAFIEEEEARDLLRPLADPRNSYTKIRFSNRSFGSEAAKFAASVLSSIKDQLTEVDLSDFVAGRPEAEALEVMNMFSSALEGSKLRYLNLSDNALGEKGIRAFASLINSQHDLEELYLMNDGISEDAARAVRELLPSTDKIRVLQFHNNMTGDEGATAIAEIVRECPSLEDFRCSSTRIGSEGGVALAEALEHCSHLKKLDLRDNMFGVEGGIALAKTLSVLTHLTEIYMSYLNLEDEGTEALSEALLKSAPSLEVLELAGNDITVKSTGNLAACIASKQSLAKLNLSENELKDEGTILIAKAVEGHDQLVEVDLSTNMIRRAGARALAQTVVKKNTFKLLNINGNFISEEGIDEVNDMFKDCLDKLVPLDDNDPEGEDFEDEDEEEEGEDGNELESKLGSLKIKQGEE"}}}
{"variants_of": "B1", "details": "with kn12c_arath KIN12C"}
{"variant": "MDHSAKTTQNRVLSVKMAAPSKSTRLMLVERMTKNITTPSIFSRKYGLLSVEEAEQDAKRIEDLAFATANKHFQNEPDGDGTSAVHVYAKESSKLMLDVIKRGPQEESEVEVSKDGDVFFDISGGSRAFIEEEEARDLLRPLADPRNSYTKIRFSNRSFGSEAAKFAASVLSSIKDQLTEVDLSDFVAGRPEAEALEVMNMFSSALEGSKLRYLNLSDNALGEKGIRAFASLINSQHDLEELYLMNDGISEDAARAVRELLPSTDKIRVLQFHNNMTGDEGATAIAEIVRECPSLEDFRCSSTRIGSEGGVALAEALEHCSHLKKLDLRDNMFGVEGGIALAKTLSVLTHLTEIYMSYLNLEDEGTEALSEALLKSAPSLEVLELAGNDITVKSTGNLAACIASKQSLAKLNLSENELKDEGTILIAKAVEGHDQLVEVDLSTNMIRRAGARALAQTVVKKNTFKLLNINGNFISEEGIDEVNDMFKDCLDKLVPLDDNDPEGEDFEDEDEEEEGEDGNELESKLGSLKIKQGEE", "note": "[W18A;P19A]", "effect of a mutation on the interaction": "decreasing interaction"}
